Experimental data: IntAct's records for PubMed 25096571

B1: Forkhead box protein P3 (Homo sapiens), Q9BZS1-1 (parent)
chain: MPNPRPGKPSAPSLALGPSPGASPSWRAAPKASDLLGARGPGGTFQGRDLRGGAHASSSSLNPMPPSQLQLPTLPLVMVAPSGARLGPLPHLQALLQDRPHFMHQLSTVDAHARTPVLQVHPLESPAMISLTPPTTATGVFSLKARPGLPPGINVASLEWVSREPALLCTFPNPSAPRKDSTLSAVPQSSYPLLANGVCKWPGCEKVFEEPEDFLKHCQADHLLDEKGRAQCLLQREMVQSLEQQLVLEKEKLSAMQAHLAGKMALTKASSVASSDKGSCCIVAAGSQGPVVPAWSGPREAPDSLFAVRRHLWGSHGNSTFPEFLHNMDYFKFHNMRPPFTYATLIRWAILEAPEKQRTLNEIYHWFTRMFAFFRNHPATWKNAIRHNLSLHKCFVRVESEKGAVWTVDELEFRKKRSQRPSRCSNPTPGP

Variants of: B1
Settings: with PIM1, P11309-1

Row | Variant | effect of a mutation on the interaction
1 | S422A | decreasing interaction strength

Variants of: B1
Settings: with PIM1, P11309-1
Remark: another data set of the same source

Row | Variant | effect of a mutation on the interaction
2 | S418D | disrupting interaction strength
3 | S418C | increasing interaction strength
4 | S418G | increasing interaction strength
5 | S418A | decreasing interaction strength
